Legend:
[1] = molecular target: human FcRn beta-2-microglobulin complex, biotinylated, coupled to streptavidin Sepharose (human) (UniProt P55899); experiment: FcRn affinity chromatography, pH gradient 5.5 to 8.8; unlabelled antibody
[2] = molecular target: human FcRn beta-2-microglobulin complex, biotinylated, coupled to streptavidin Sepharose (human) (UniProt P55899); experiment: FcRn affinity chromatography, pH gradient 5.5 to 8.8; dye-labelled antibody

Avelumab (antibody), sequence (HC): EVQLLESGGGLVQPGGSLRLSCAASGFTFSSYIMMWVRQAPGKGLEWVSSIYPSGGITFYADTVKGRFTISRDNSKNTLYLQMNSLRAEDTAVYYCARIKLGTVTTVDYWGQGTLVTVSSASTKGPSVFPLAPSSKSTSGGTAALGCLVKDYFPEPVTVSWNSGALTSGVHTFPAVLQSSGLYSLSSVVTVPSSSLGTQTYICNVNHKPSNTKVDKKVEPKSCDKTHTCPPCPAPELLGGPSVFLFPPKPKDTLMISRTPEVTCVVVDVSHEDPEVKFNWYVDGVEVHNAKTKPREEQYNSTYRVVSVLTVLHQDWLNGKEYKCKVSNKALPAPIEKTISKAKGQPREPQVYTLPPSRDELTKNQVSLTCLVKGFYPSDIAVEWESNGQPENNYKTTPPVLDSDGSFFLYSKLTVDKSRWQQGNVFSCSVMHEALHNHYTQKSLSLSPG
Avelumab (antibody), sequence (LC): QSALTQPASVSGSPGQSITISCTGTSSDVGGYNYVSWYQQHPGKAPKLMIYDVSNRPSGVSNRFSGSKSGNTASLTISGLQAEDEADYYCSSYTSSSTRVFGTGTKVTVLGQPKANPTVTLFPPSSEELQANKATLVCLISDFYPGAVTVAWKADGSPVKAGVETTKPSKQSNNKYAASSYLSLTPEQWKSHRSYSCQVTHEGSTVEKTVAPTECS
Ustekinumab, labelled with pHAb dye (antibody), sequence (HC): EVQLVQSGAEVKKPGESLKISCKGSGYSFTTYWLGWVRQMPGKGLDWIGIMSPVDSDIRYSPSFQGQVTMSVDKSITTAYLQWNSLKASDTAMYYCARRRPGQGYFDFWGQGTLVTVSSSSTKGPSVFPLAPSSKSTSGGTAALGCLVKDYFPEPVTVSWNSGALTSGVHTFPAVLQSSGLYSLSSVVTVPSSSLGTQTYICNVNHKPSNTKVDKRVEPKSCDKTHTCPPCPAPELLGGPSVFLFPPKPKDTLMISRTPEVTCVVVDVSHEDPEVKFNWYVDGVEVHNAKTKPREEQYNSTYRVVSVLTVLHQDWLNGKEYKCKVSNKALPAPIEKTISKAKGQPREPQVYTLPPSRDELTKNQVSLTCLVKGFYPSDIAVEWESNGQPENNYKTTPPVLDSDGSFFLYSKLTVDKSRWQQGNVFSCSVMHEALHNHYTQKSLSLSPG
Ustekinumab, labelled with pHAb dye (antibody), sequence (LC): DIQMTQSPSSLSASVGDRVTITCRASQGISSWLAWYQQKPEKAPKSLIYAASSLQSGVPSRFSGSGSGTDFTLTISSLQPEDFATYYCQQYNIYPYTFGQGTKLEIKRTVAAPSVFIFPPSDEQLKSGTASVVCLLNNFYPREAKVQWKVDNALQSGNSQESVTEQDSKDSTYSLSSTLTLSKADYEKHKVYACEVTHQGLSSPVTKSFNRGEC
Ixekizumab, labelled with pHAb dye (antibody), sequence (HC): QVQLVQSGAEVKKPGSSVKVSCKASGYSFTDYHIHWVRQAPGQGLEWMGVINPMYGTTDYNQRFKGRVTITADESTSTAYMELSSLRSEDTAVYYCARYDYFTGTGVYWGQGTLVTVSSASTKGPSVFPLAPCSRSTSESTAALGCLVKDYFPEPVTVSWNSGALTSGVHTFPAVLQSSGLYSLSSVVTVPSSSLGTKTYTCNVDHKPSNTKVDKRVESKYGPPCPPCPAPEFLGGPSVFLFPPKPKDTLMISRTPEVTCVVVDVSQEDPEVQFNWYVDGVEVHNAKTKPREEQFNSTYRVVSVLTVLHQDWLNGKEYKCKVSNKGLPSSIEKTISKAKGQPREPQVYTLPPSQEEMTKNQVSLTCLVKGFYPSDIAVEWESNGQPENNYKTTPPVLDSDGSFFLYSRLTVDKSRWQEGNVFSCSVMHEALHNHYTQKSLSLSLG
Ixekizumab, labelled with pHAb dye (antibody), sequence (LC): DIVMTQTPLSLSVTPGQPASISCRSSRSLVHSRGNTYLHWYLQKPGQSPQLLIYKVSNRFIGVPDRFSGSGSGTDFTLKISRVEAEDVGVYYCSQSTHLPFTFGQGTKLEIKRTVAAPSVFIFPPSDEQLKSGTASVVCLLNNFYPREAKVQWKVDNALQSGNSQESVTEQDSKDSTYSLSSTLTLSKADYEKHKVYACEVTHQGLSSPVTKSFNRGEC

Row | Substance | relative retention time on FcRn affinity column (relative to anti-Her3 antibody standard) [1] | relative retention time on FcRn affinity column (relative to anti-Her3 antibody standard) [2]
1 | Adalimumab, labelled with pHAb dye (antibody) |  | 0.84
2 | Motavizumab-YTE, labelled with pHAb dye (antibody) |  | 4.88
3 | Nivolumab (antibody) | 0.49 | 
4 | Ustekinumab (antibody) | 0.48 | 
5 | Palivizumab, labelled with pHAb dye (antibody) |  | 0.28
6 | Motavizumab WT, labelled with pHAb dye (antibody) |  | 0.42
7 | Reslizumab, labelled with pHAb dye (antibody) |  | 0.41
8 | Ofatumumab (antibody) | 0.72 | 
9 | Ofatumumab, labelled with pHAb dye (antibody) |  | 0.67
10 | Motavizumab-YTE (antibody) | 4.52 | 
11 | Nivolumab, labelled with pHAb dye (antibody) |  | 0.39
12 | Ixekizumab, labelled with pHAb dye (antibody) |  | 1.33

Other lines, results leading:

Row | relative retention time on FcRn affinity column (relative to anti-Her3 antibody standard) [1] | relative retention time on FcRn affinity column (relative to anti-Her3 antibody standard) [2] | Substance
13 | 1.27 |  | Avelumab (antibody)
14 |  | 1.25 | Avelumab, labelled with pHAb dye (antibody)
15 | 0.31 |  | Palivizumab (antibody)
16 | 0.5 |  | Reslizumab (antibody)
17 | 0.5 |  | Motavizumab WT (antibody)
18 | 0.93 |  | Adalimumab (antibody)
19 |  | 0.41 | Ustekinumab, labelled with pHAb dye (antibody)

From patent publication US20230194547A1
